The source of these data is patent US20230091175A1 (SYSMEX, published 2023).

Substitutions are numbered along the chain they refer to.

Sequences and labels used below:
T1: animal free recombinant human IL-4 (AF-200-04: Peprotech, Inc.) (human, UniProt P05112 25-153)
T1 construct: Bought reagent
T1 sequence (looked up): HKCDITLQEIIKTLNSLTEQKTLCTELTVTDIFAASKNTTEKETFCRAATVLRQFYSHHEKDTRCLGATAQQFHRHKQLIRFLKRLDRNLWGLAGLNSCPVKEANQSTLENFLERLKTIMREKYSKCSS

B1: human anti-IL-4 antibody (PDB: 5FHX), original (unmodified) (antibody, human IgG1, kappa, V domains shown)
VH: AVQLQQSGPELVKPGASVKISCKASGYSFTSYWIHWIKQRPGQGLEWIGMIDPSDGETRLNQRFQGRATLTVDESTSTAYMQLRSPTSEDSAVYYCTRLKEYGNYDSFYFDVWGAGTLVTVSS
VL: DIQMTQSPASLSVSVGDTITLTCHASQNIDVWLSWFQQKPGNIPKLLIYKASNLHTGVPSRFSGSGSGTGFTLTISSLQPEDIATYYCQQAHSYPFTFGGGTKLEIKR
notes: IgG with full heavy and light chains; also called original anti-IL-4 antibody
B2: R4 variant of anti-IL-4 antibody (antibody, human IgG1, kappa, V domains shown)
VH: B1 VH
VL: B1 VL with S63R, S65R, S67R, G70R
notes: IgG; light chain positions 63, 65, 67, 70 (Chothia) changed to Arg
B3: R3 variant of anti-IL-4 antibody (antibody, human IgG1, kappa, V domains shown)
VH: B1 VH
VL: B1 VL with S63R, S65R, S67R
notes: IgG; light chain positions 63, 65, 67 (Chothia) changed to Arg

The target in one assay is T1, animal free recombinant human IL-4 …. The assay can be described thus: ELISA; affinity ratio with the original antibody as 1.0. The method, then:
(§1) Affinity of the original anti-IL-4 antibody and variants was measured by ELISA method. As an antigen, an animal free recombinant human IL-4 (AF-200-04: Peprotech, Inc.) was used. The IL-4 was diluted with 1% BSA/TBS to prepare an antigen solution (5 μg/mL). Each of the original anti-IL-4 antibody, R3 variant and R4 variant was diluted with 1% BSA/TBS to prepare an antibody solution (1000 ng/mL, 250 ng/mL, 62.5 ng/mL, 15.63 ng/mL, 3.91 ng/mL, 0.98 ng/mL, and 0.244 ng/mL). As a detection antibody, an HRP-labeled anti-human IgG antibody (Bethyl Laboratories) was used. The detection antibody was diluted with 1% BSA/TBS to prepare a detection antibody solution (100 ng/mL).
(§2) The antigen solution was dispensed at 50 μL per well into a 96 well plate for ELISA (Thermo Fisher Scientific), and the plate was incubated at 4° C. overnight. The plate was washed 3 times with 200 μL of a washing solution per well (0.05% Tween 20-containing TBS). A blocking solution (1% BSA-containing TBS) was dispensed at 250 μL per well, and the plate was incubated at 4° C. overnight. The blocking solution was removed, the […] solution was dispensed at 50 μL of antibody solution per well into the plate, and the plate was incubated at room temperature for 15 minutes. After washing the plate 3 times with a washing solution, the detection antibody solution was dispensed at 50 μL per well, and the plate was incubated at room temperature for 1 hour. After washing the plate 3 times with a washing solution, a substrate solution (Seracare) was dispensed at 100 μL per well into the plate, and the absorbance at 450 nm was measured with a plate reader SpectraMax 190 Microplate Reader (Molecular Devices, LLC.).
A general note: An ELISA detects its analyte on a solid surface through an enzyme-linked reagent.
Consider B1, for which the EC50 ratio was 1.
Same read-out and setting: as for B2, the figure is 1.7.
On to B3, for which the EC50 ratio stood at 1.7.

The target is the same in a further assay. The assay can be described thus: ELISA, IL-4 coated on plate, HRP anti-human IgG detection. The method, then: as §1, §2
As a reminder, the EC50 is the concentration that produces a half-maximal response. For B1, the EC50 was 0.304 µg/mL.
Take B2: the concentration giving a half-maximal response (EC50) is 0.176 µg/mL.
The same measure, in the same setting: the result for B3 reads 0.18 µg/mL.
